Experimental data reported in patent US20030211466.
Read-outs that look alike come from different tables or passages of the source.

Test system: HuB (Hel-N2, ELAV-like), Q12926-2
Settings: increase in HuB RNP on differentiation

Sequence of HuB (Hel-N2, ELAV-like), Q12926-2 (Q12926 other isoform, or with tags, fused parts or gaps): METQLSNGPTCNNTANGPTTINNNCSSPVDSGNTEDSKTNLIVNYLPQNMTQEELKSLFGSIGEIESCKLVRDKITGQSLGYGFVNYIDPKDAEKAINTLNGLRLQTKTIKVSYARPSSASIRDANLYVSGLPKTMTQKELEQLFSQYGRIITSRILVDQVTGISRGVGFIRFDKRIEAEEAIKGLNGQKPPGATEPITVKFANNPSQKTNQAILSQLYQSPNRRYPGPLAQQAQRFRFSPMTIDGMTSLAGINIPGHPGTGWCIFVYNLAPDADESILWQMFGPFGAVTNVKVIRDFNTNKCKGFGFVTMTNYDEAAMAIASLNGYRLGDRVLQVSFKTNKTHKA

## CELSR mRNA
Total RNA -1.33
  binding signal: 9.41 fold

## MBNL mRNA
Total RNA +1.42
  binding signal: 8.95 fold

## CACN (calcium channel beta 3) mRNA
Total RNA +1.31
  binding signal: 14.5 fold
